# T1: TBP (TATA-binding protein) (UniProt P13393 P13393:1-240)
# T1 sequence: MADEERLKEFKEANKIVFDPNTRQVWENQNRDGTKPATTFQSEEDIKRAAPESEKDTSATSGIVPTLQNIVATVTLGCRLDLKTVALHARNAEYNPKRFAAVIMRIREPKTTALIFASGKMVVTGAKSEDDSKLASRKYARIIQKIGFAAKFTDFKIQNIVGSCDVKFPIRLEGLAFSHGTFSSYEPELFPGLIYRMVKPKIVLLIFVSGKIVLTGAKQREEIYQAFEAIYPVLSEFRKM
# T2: HSF (heat shock factor) (UniProt P22813 P22813:1-691)
# T2 sequence: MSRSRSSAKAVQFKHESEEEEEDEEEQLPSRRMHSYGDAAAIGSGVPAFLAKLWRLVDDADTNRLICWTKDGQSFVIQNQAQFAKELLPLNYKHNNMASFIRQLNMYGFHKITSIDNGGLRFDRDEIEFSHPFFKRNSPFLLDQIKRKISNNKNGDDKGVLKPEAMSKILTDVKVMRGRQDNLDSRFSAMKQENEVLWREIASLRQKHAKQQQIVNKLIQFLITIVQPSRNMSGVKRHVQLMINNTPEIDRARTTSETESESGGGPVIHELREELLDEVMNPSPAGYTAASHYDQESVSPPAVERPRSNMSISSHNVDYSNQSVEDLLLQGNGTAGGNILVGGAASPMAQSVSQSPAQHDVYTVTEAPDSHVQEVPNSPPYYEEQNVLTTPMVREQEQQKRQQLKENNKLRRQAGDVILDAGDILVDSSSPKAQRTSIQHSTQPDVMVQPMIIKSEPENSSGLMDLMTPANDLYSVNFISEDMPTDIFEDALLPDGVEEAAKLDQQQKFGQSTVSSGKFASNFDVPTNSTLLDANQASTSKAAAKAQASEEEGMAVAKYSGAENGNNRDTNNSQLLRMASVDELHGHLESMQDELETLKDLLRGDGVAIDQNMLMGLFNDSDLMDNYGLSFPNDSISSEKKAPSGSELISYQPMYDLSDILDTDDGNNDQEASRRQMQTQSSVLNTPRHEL
# B1: m12 (mini AptTBP-12) (ssRNA)
# RNA: GGCGCCGUGCCCGGUUUGGAUAGGCACAUAAGACGCC
# B2: aptabody B-S (ssRNA)
# RNA: GGGAUCGCCGCGGCUGGUCAACCAGGCGACCGCCGCGGCCACAGCGGUGGGCUGGUCAACCAGGCGACCGCCCACCAGCGUUCCCGGAUCCGUGACCGACCAGAAUCAUGCAAGUGCGUAAGAUAGUCGCGGGUCGGGUCAUACUCCCGGCCAGAAUCAUGCAAGUGCGUAAGAUAGUCGCGGGCCGGGAGGCGGAUUC
# B3: AptTBP-12 (ssRNA)
# RNA: GGGAGAAUUCAACUGCCAUCUAGGCGCCGUGCCCGGUUUGGAUAGGCACAUAAGACGCCGACAAAGAAACCAACCAGUACUACAAGCUUCUGGACUCGGU
# B4: AptTBP-101 (ssRNA)
# RNA: GGGAGAAUUCAACUGCCAUCUAGGCAGCCAAGGUAAACAAUUCAGUUAGUGGAAUGAAACUGCCCAACACCAGAAGUACUACAAGCUUCUGGACUCGGU
# B5: S1 (ssRNA)
# RNA: GGGAGUCGACCGACCAGAAUCAUGCAAGUGCGUAAGAUAGUCGCGGGCCGGGGGCGUAUUAUGUGCGUCUACAUCUAGACUCAU
# B6: aptabody B-R (ssRNA)
# RNA: GGGAUCGCCGCGGCUGGUCAACCAGGCGACCGCCGCGGCCACAGCGGUGGGCUGGUCAACCAGGCGACCGCCCACCAGCGUUCCCGGAUCCGUGACGUCAACACGGUCCCGGACGUGUUGACGUCCAUACUCCUCAACACGGUCCCGGACGUGUUGAGGAGGCGGAUUC
# B7: S1 con (ssRNA)
# RNA: GGGACCGACCAGAAUCAUGCAAGUGCGUAAGAUAGUCGCGGGCCGGG
# B8: aptabody T-S (ssRNA)
# RNA: GGGAUCGCCGCCGAGCCCGGGAGCUCGGCGGCCACAGCGGUGGGAGCCCGGGAGCUCCCACCAGCGUUCCCGGAUCCGUGACCGACCAGAAUCAUGCAAGUGCGUAAGAUAGUCGCGGGUCGGGUCAUACUCCCGGCCAGAAUCAUGCAAGUGCGUAAGAUAGUCGCGGGCCGGGAGGCGGAUUC
# B9: RA1-HSF (ssRNA)
# RNA: GGGAGAAUUCAACUGCCAUCUAGGCAUCGCGAUACAAAAUUAAGUUGAACGCGAGUUCUCCAUCUAGUACUACAAGCUUCUGGACUCGGU
# What was measured:
# [1] = molecular target: T1, TBP (TATA-binding protein); experiment: reduced form fully retained binding; used to mask DNA-binding surface of TBP
# [2] = molecular target: T3, B52 (SR protein), full-length (UniProt P26686 P26686:2-350); experiment: Western blot with HRP-streptavidin; 15 mM MgCl2; conditions: tags: baculovirus expressed; two fused three-way junctions, two BBS and two S1 aptamers
# Protocol: (§1) Western blot analysis for antibodies was performed according to a standard protocol (Harlow et al., Using Antibodies: A Laboratory Manual. Cold Spring Harbor, Cold Spring Harbor Laboratory Press (1999), which is hereby incorporated by reference in its entirety). For the aptabodies, proteins were separated on 8% SDS-PAGE and transferred to nitrocellulose membrane according to the aforementioned standard protocol. Subsequent steps were also identical except the following substitutions. The RNA aptabody B-S (FIG. 5A) (10 μg/ml) and horseradish peroxidase conjugated streptavidin (1 μg/ml) were used to replace the primary and secondary antibodies. […]
# (§2) First, a Western blot analysis was conducted with the aptabodies and a monoclonal antibody against B52. The sample to be analyzed contained a full-length B52 produced from a baculovirus expression system, a His-tagged B52 deletion construct that contained the two RNA recognition motifs recognized by the aptamers and the monoclonal antibody By32 (Champlin et al., “Characterization of a Drosophila Protein Associated with Boundaries of Transcriptionally Active Chromatin,” Genes and Development 5:1611-1621 (1991), which is hereby incorporated by reference in its entirety), and a His-tagged Drosophila heat shock factor as control. […]
# [3] = molecular target: T4, B52 RRMs (two RNA recognition motifs) (UniProt P26686 P26686:4-188); experiment: Western blot and dot blot; as low as 1 ng protein detected; conditions: tags: His; two fused three-way junctions, two BBS and two S1 aptamers
# Protocol: as §1, §2
# Streptavidin [4] = molecular target: T5, Streptavidin (UniProt P22629 P22629:25-183); experiment: streptavidin conjugates as secondary reagent in Western, dot blot and immunofluorescence; conditions: tags: ImmunoPure streptavidin, Pierce; HRP or Texas Red conjugates in immunoassays; chain copies: 4; two fused three-way junctions, two BBS and two S1 aptamers
# [5] = molecular target: T1, TBP (TATA-binding protein); experiment: filter; AptTBP-101 Kd stated to be similar to that of AptTBP-12 complex; binds DNA-binding surface and competes with TATA-DNA (p252)
# [6] = molecular target: T1, TBP (TATA-binding protein); experiment: filter; conditions: three-way junction with asymmetric internal loop and apical loop
# Streptavidin [7] = molecular target: T5, Streptavidin; experiment: original aptamer used as reference in deletion analysis; conditions: tags: ImmunoPure streptavidin, Pierce; HRP or Texas Red conjugates in immunoassays; chain copies: 4
# [8] = molecular target: T3, B52 (SR protein), full-length; experiment: Western blot with B-R then T-S then HRP-streptavidin; conditions: tags: baculovirus expressed; two fused three-way junctions, two BBS and two R-06 modules
# Protocol: as §1, §2
# [9] = molecular target: T4, B52 RRMs (two RNA recognition motifs); experiment: as above; conditions: tags: His; two fused three-way junctions, two BBS and two R-06 modules
# Protocol: as §1, §2
# Streptavidin [10] = molecular target: T5, Streptavidin; experiment: EMSA; reduced S1 retains full activity; conditions: tags: ImmunoPure streptavidin, Pierce; HRP or Texas Red conjugates in immunoassays; chain copies: 4
# Protocol: All binding assays were performed in 20 μl volume. The binding buffer contains 50 mM Tris-Cl (pH 7.4), 100 mM NaCl, 15 mM MgCl₂, 10% glycerol, and 1 mM DTT. A typical binding assay using labeled RNA contains about 20 fmole of ³²P-labeled RNA probe and different amounts (1-10 pmole, indicated by L and H in FIG. 5B) of protein or non-labled RNA. The reactions were allowed to equilibrate for 15-20 minutes at ambient temperature before being subjected to EMSA.
# For BBS-B52 interaction, EMS assay was performed at 4° C. The binding reaction mixtures were set at 4° C. for 5-10 minutes before being loaded onto a 2.5% agarose gel in ¼ TBE buffer. For the streptavidin aptamers and the TAR aptamers, EMSA were performed at ambient temperature with 6% or 12% native polyacrylamide gel run in TG buffer (25 mM Tris base, 200 mM glycine, and 5 mM MgCl₂).
# Streptavidin [11] = molecular target: T5, Streptavidin; experiment: T-S secondary aptabody detected by HRP-streptavidin; conditions: tags: ImmunoPure streptavidin, Pierce; HRP or Texas Red conjugates in immunoassays; chain copies: 4; two fused three-way junctions, two TAR-Mal and two S1 modules
# Protocol: as §1, §2
# HSF (heat shock factor) = molecular target: T2, HSF (heat shock factor); experiment: EMSA; affinity measured, value only in figure; conditions: tags: His; three-way junction
# T5 sequence (P22629 25-183, one chain of several): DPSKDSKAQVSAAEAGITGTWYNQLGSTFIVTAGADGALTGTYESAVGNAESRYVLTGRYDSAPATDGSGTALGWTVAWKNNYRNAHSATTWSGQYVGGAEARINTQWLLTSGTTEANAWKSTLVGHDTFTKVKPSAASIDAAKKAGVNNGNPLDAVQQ
# T4 sequence (P26686 other isoform, or with tags, fused parts or gaps): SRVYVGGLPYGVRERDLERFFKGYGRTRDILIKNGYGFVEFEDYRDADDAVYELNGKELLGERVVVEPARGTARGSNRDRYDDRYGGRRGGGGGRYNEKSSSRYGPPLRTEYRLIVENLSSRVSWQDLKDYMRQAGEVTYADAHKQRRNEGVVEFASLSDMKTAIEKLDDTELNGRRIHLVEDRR
# T3 sequence (P26686 other isoform, or with tags, fused parts or gaps): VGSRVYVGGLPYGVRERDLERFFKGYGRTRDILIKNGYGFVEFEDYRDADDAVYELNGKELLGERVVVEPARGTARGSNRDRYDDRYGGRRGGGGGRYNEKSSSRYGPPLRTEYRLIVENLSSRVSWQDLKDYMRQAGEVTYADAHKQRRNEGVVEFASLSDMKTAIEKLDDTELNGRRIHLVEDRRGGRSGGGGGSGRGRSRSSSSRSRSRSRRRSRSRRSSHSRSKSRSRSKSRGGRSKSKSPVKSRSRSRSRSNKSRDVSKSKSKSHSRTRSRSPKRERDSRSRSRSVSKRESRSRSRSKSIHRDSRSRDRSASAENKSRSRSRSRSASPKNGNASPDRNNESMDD
binder,measurement,setting,value
B1,binding result,[1],binds
B2,binding result,[2],binds
same,binding result,[3],binds
same,binding result,Streptavidin [4],binds
B3,Kd,[5],~2 nM
B4,Kd,[6],2 nM
B5,binding result,Streptavidin [7],binds
B6,binding result,[8],binds
same,binding result,[9],binds
B7,binding result,Streptavidin [10],binds
B8,binding result,Streptavidin [11],binds
B9,binding result,HSF (heat shock factor),binds

# Source: patent US20050282190, “Modular design and construction of nucleic acid molecules, aptamer-derived nucleic acid constructs, RNA scaffolds, their expression, and methods of use” (published 2005)
